From article PMC13061240 come the findings set out here.

Assay [1] concerns the target beluga whale coronavirus (BwCoV) spike (S) glycoprotein ectodomain, 2P, GCN4 trimerization motif, Strep-tag (beluga whale coronavirus (BwCoV)). The assay is described as follows: cryo-EM structure.
Assay [2] concerns the target bottlenose dolphin coronavirus (BdCoV) spike (S) glycoprotein ectodomain (23-1370), 2P, GCN4 trimeri (bottlenose dolphin coronavirus (BdCoV)). In words: cryo-EM structure.

A word on the stoichiometry N: it is the number of molecules, sites or subunits per partner or assembly.

With “beluga whale coronavirus (BwCoV) spike (S) glycoprotein ectodomain, 2P, GCN4 trimerization motif, Strep-tag (domain or fragment)”, in assay [1], the stoichiometry N is 3. As for “bottlenose dolphin coronavirus (BdCoV) spike (S) glycoprotein ectodomain (23-1370), 2P, GCN4 trimeri (domain or fragment)”, the stoichiometry N in assay [2] was found to be 3.
